The nanobody polyreactivity screen of Harvey et al. (2022)

Test: yeast display, Sf9 membrane polyspecificity reagent, FACS + sequencing; frameworks hold sequencing errors
Method in brief: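 Galactose-induced (36–48 hours) yeast carrying a synthetic nanobody display library were exposed to 10% biotinylated, detergent-solubilized Sf9 membrane reagent at 4 °C for 1 hour. FACS followed streptavidin microbead enrichment, using low and high (top ~1%) gates for expression (anti-HA) and reagent binding (streptavidin). Colony PCR, MiSeq 2 × 250 sequencing and CDR-length filtering followed. Labels for polyreactivity reflect the gate of origin.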

Sequence | polyreactivity (PSR sort gate)
QVQLVESGGGLVQAGGSLRLSCAASGRIFGNYAMGWYRQAPGKERELVAAITSGARTYYADSVKGRFTISRDNAKNTVYLQMNSLKPEDTAVYYCAAYHKSYSNRYDYWGQGTHVTVSS | high polyreactivity
QVQLVESGGGLVQAGGSLRLSCAASGSTYANAMGWYRQAPGKERELVAAITDNGGRTYYADSVKGRFTISRDNEKNNVYLQMNSLKPEDTAVYYCAARSSVWGQVTQVTVSS | low polyreactivity
QVQLVESAAGLVQAGVSLRLSCAASGFTLFYYAMGWYRQEPGKERELVAGISRRGGSTYYADSVKGRFTISRDNEKNTVYLQMNSLKPEDTAVYYCAAGLCGYKSDTRGDYWGQGTQVTVSS | low polyreactivity
QVQLEESGGGLVQAGGRLRLSCAASGSILTAYAMGWYRQAPGKERELVAASNFSGDNTYYADSVKGRFTISRDNAKNTVYLQMNSLKPQDTALYYCNADGRYAYVWYDYWGQGTQVTVSS | low polyreactivity
QVQLVESGGGLVQAGGSLRLSCAASGFIFNVYDMGWYRQAPGKERELVAAISTSGSNTYYADSVKVRFTISRDNAKNTVYLQMNSLKPEDTAVYYCNAVRVRVRWHYYAVYYWGQGTQVTVSS | high polyreactivity
QVQLVESGGGLVQAGGSLRLSCAASVRTFGGYAMGLYRQAPGKERELVAAITSDTGTNYADSVKGRFTISRDNAKNTVYLEMNSLKPEDTAVYYCAADTPYSYYLNIYWKGMDYWGQGTQVTVSS | low polyreactivity
QVQLVESGGGLVQAGGSLRLSCAASGIIFRQYAMGWYRQAPGKERELVAGISSRGGSTYYADSVKGRFTISRDNAKNTVYLQMNSLKPEDTAVYYCAARYPGYFYHLDYWGQGTQVTVSS | low polyreactivity
QVQLVESGGGLVQAGGSLRLSCAASGSTLYPYDMGWYRQAPGKERELVAAIDSGGSTNYADSVKGRFTISRDNAKNTVYLQMNSLKPEDTAVYYCAADASGENDYWGQGTQVTVSS | low polyreactivity
QVQLVESGGGLVQAGGSLRLSCAASGFIFSYYAMGWYRQAPGKERELVAAISRNGGRTYYADSVKGRFTISRDNAKNTVYLQMNSLKPEDTAVYYCAATTYRTSSYIRYGSPKHDDYWGQGTQVTVSS | high polyreactivity
QVQLVESGGGLVQAGGSLRLSCAASGFIFRYYAMGWYRQAPGKERELVAAISRSGGRTYYADSVKGRFTISRDNAKNTVYLQMNSLKPEDTAVYYCAARYPVRPDDGYWGQGTQVTVSS | high polyreactivity
QVQLVESGGGLVQAGGSLRLSCAASGSTFIFYTMGWYRQAPGKERELVAAITSNGGSTYYADSVKGRFTISRDNAKNTVYLQMNSLKPEDTAVYYCARVDRWRRYRYIFSGYDYWGQGTQVTVSS | high polyreactivity
QVQLVESGGGLVQAGGSLRLSCAASGRIFRVYAMGWYRQAPGKERELVAAISYSGGSTYYADSVKGRFTISRDNAKNTVYLQMNSLKPEDTAVYYCAAIRRSSKESKGTNPYEYWGQGTQVTVSS | high polyreactivity
QVQLVESGGGLVQAGGSLRLSCAASGFTFRWYAMGWYRQAPGKERELVAAISTSGGSTYYADSVKGRFTITRDNAKNTVYLQMNSLKPEDTSVYYCNRVNNYPTRKYDYWGQGSQVTVSS | high polyreactivity
QVQLVESGGGLVQAGGSLRLSCAASGLIFGWYAMGWDRQAPGKERELVAAITRSGGSTYYADSVKGRFTISRDTAKNTVYLQMHSLKPEDTAVYSCAAEIHYSYTRGYGYWGQGTQVTVSS | high polyreactivity
QVHLVESGGGLVQAAGSLRLSCAASGFIFYYYAMGWYRQAPGKERELVAAISRSGGRTYYADSVKGRFTISRDNAKNTVYLQMNSLKPEDTAVYYCAAPGYQTVGMGYWGQGTQVTVSS | high polyreactivity
QVQLVESWGGLVQAGGSLRLSCAASGFTFAYNTMGWYRQAPGTEREWVAAISSSGGSTYYADSVKGRFTISRDNAKNTVYLQMNSLKPEDTAVYDCAAPFWRSFWASDYCGQGTQVTVSS | high polyreactivity
QVQLVESGGGLVQAGGSLRLSCAASGFTFVYSVMGWYRQAPGKERELVAAINAGGGSTYYADSVKGRFTISRDNAKNTVYLQMNSLKPEDTAVYYCNARVRVRLGRNWSSYYYWGQGTQVTVSS | high polyreactivity
QVQLVESGGGLVQAGGSLRLSCAASGFSFTSNAMAWYRQAPGKERELVAAITTRGGSTYYADSVKGRFTLSRDNAKNTVDLPMNSLKPEDTSVYYCAARYSYWGLLRYDYWGQGTQVTVSS | high polyreactivity
QVQLVESGGGLVQAGGSLRLSCAASGFTFGYYGMGWYRQATGKEMELVAAIDCSGASTYYADSVKGRFTISRDNAKNTVDLQINSLKPEDSAVYYCNADRYLYSLYTYEYDYWGHGTQVTVSS | low polyreactivity
QVQLVESGGGLVQAGGSLRLSCAASGSIFQRYTMGWYIQAPGKERELVAAISWSGDGTYYADSVKGRFTISRDNAKNTFYLQMNSLKPEDTAVYYCNDGYTRRYRFRVENDYDYWGQGTQVTVSS | high polyreactivity
QVQLVESGGGLVQAGGSLRLSCAASGFTFQNYVMGWYRQAPGKERELVAAINSGGRTYYADSVKGRFTISRDNAKNTVYLQMNSLKPEDTAVYYCNAVQPATYKYRSHVIEYDYWGQGSQVTVSS | high polyreactivity
QVQLVESGGGLVQAGGSLRLSCAASGSTFRYNAMGWYRQAPGKERELVAAINRGGGTDYADSVKGRFTISRDNAKNTVYLQMNSLKPEDTAVYYCAAAYLRYVSTQYHYDDWGQGTQVTVSS | low polyreactivity
